# Publication PMC12595441, “Glycosaminoglycans activate peptidylarginine deiminase 4 by enhancing calcium affinity” (Proceedings of the National Academy of Sciences of the …, 2025)
# Key:
# [1] = biological target: heparin; test: SPR; conditions: immobilized heparin
# [2] = biological target: heparin; test: heparin activation assay with BAEE substrate, Hill equation fit (apparent KD); conditions: 0.1 mM Ca2+
# [3] = biological target: heparin; test: heparin column chromatography (Poros heparin), salt gradient; conditions: gradient of 2 M NaCl; parent: est. 31 min; read off a plot
# [4] = biological target: the molecule itself; test: SEC; analytical SEC in the presence of 5 µM heparin, Superdex 200 Increase 3.2/300, protein at 0.15 µM, 50 mM Tris pH 7.5, 300 mM NaCl, 0.1 mM CaCl2, 0.05% Tween20, 0.25 mM DTT; tryptophan fluorescence
# [5] = biological target: the molecule itself; test: SEC; analytical SEC without heparin, Superdex 200 Increase 3.2/300, protein at 0.15 µM, 50 mM Tris pH 7.5, 300 mM NaCl, 0.1 mM CaCl2, 0.05% Tween20, 0.25 mM DTT; tryptophan fluorescence; compared with HMW calibration standards
Molecule,Kd [1] [nM],koff [1],kon (× 10^4 M^-1s^-1) [1],response [1] [RU],Kd [2] [nM],other: peak elution time from heparin column [3] [min],stoichiometry N [4],stoichiometry N [5],binding result [4]
"peptidylarginine deiminase 4 (PAD4), recombinant human, wild type (from UniProt Q9UM07) R8E; Y435A",15.5,4.5 × 10^-4,3,802,,,,,
"peptidylarginine deiminase 4 (PAD4), recombinant human, wild type (from UniProt Q9UM07) R123S; K126S; K128S",14.4,4.6 × 10^-4,3,328,6.2,29,,,
"PAD4^59/60/61/81/91 (K59S K60S K61S K81S K91S) (enzyme, human, UniProt Q9UM07 1-663, looked up, Full length human PAD4 (GenBank NM_012387) with K59S K60S K61S K81S K91S; source: E. coli BL21(DE3), purified (HisTrap FF, HiTrap Heparin HP, Superdex 200 SEC)) MAQGTLIRVTPEQPTHAVCVLGTLTQLDICSSAPEDCTSFSINASPGVVVDIAHGPPASSSSTGSSTWPLDPGVEVTLTMSVASGSTGDQSVQISYYGPKTPPVKALLYLTGVEISLCADITRTGKVKPTRAVKDQRTWTWGPCGQGAILLVNCDRDNLESSAMDCEDDEVLDSEDLQDMSLMTLSTKTPKDFFTNHTLVLHVARSEMDKVRVFQATRGKLSSKCSVVLGPKWPSHYLMVPGGKHNMDFYVEALAFPDTDFPGLITLTISLLDTSNLELPEAVVFQDSVVFRVAPWIMTPNTQPPQEVYACSIFENEDFLKSVTTLAMKAKCKLTICPEEENMDDQWMQDEMEIGYIQAPHKTLPVVFDSPRNRGLKEFPIKRVMGPDFGYVTRGPQTGGISGLDSFGNLEVSPPVTVRGKEYPLGRILFGDSCYPSNDSRQMHQALQDFLSAQQVQAPVKLYSDWLSVGHVDEFLSFVPAPDRKGFRLLLASPRSCYKLFQEQQNEGHGEALLFEGIKKKKQQKIKNILSNKTLREHNSFVERCIDWNRELLKRELGLAESDIIDIPQLFKLKEFSKAEAFFPNMVNMLVLGKHLGIPKPFGPVINGRCCLEEKVCSLLEPLGLQCTFINDFFTYHIRHGEVHCGTNVRRKPFSFKWWNMVP",,,,,,,≤ 4,4,
"PAD4^126/128/131/134/137 (K126S K128S R131S K134S R137S) (enzyme, human, UniProt Q9UM07 1-663, looked up, Full length human PAD4 (GenBank NM_012387) with K126S K128S R131S K134S R137S; source: E. coli BL21(DE3), purified (HisTrap FF, HiTrap Heparin HP, Superdex 200 SEC)) MAQGTLIRVTPEQPTHAVCVLGTLTQLDICSSAPEDCTSFSINASPGVVVDIAHGPPAKKKSTGSSTWPLDPGVEVTLTMKVASGSTGDQKVQISYYGPKTPPVKALLYLTGVEISLCADITRTGSVSPTSAVSDQSTWTWGPCGQGAILLVNCDRDNLESSAMDCEDDEVLDSEDLQDMSLMTLSTKTPKDFFTNHTLVLHVARSEMDKVRVFQATRGKLSSKCSVVLGPKWPSHYLMVPGGKHNMDFYVEALAFPDTDFPGLITLTISLLDTSNLELPEAVVFQDSVVFRVAPWIMTPNTQPPQEVYACSIFENEDFLKSVTTLAMKAKCKLTICPEEENMDDQWMQDEMEIGYIQAPHKTLPVVFDSPRNRGLKEFPIKRVMGPDFGYVTRGPQTGGISGLDSFGNLEVSPPVTVRGKEYPLGRILFGDSCYPSNDSRQMHQALQDFLSAQQVQAPVKLYSDWLSVGHVDEFLSFVPAPDRKGFRLLLASPRSCYKLFQEQQNEGHGEALLFEGIKKKKQQKIKNILSNKTLREHNSFVERCIDWNRELLKRELGLAESDIIDIPQLFKLKEFSKAEAFFPNMVNMLVLGKHLGIPKPFGPVINGRCCLEEKVCSLLEPLGLQCTFINDFFTYHIRHGEVHCGTNVRRKPFSFKWWNMVP",,,,,,,≤ 4,4,
"PAD4^123/126/128 (R123S K126S K128S) (enzyme, human, UniProt Q9UM07 1-663, looked up, Full length human PAD4 (GenBank NM_012387) with R123S K126S K128S; source: E. coli BL21(DE3), purified (HisTrap FF, HiTrap Heparin HP, Superdex 200 SEC)) MAQGTLIRVTPEQPTHAVCVLGTLTQLDICSSAPEDCTSFSINASPGVVVDIAHGPPAKKKSTGSSTWPLDPGVEVTLTMKVASGSTGDQKVQISYYGPKTPPVKALLYLTGVEISLCADITSTGSVSPTRAVKDQRTWTWGPCGQGAILLVNCDRDNLESSAMDCEDDEVLDSEDLQDMSLMTLSTKTPKDFFTNHTLVLHVARSEMDKVRVFQATRGKLSSKCSVVLGPKWPSHYLMVPGGKHNMDFYVEALAFPDTDFPGLITLTISLLDTSNLELPEAVVFQDSVVFRVAPWIMTPNTQPPQEVYACSIFENEDFLKSVTTLAMKAKCKLTICPEEENMDDQWMQDEMEIGYIQAPHKTLPVVFDSPRNRGLKEFPIKRVMGPDFGYVTRGPQTGGISGLDSFGNLEVSPPVTVRGKEYPLGRILFGDSCYPSNDSRQMHQALQDFLSAQQVQAPVKLYSDWLSVGHVDEFLSFVPAPDRKGFRLLLASPRSCYKLFQEQQNEGHGEALLFEGIKKKKQQKIKNILSNKTLREHNSFVERCIDWNRELLKRELGLAESDIIDIPQLFKLKEFSKAEAFFPNMVNMLVLGKHLGIPKPFGPVINGRCCLEEKVCSLLEPLGLQCTFINDFFTYHIRHGEVHCGTNVRRKPFSFKWWNMVP",,,,,,,,,binds

# More lines, main results first:
Kd [1] [nM],koff [1],kon (× 10^4 M^-1s^-1) [1],response [1] [RU],Kd [2] [nM],other: peak elution time from heparin column [3] [min],Molecule,stoichiometry N [4],stoichiometry N [5],binding result [4]
16.6,4.5 × 10^-4,2.8,786,13.3,,"peptidylarginine deiminase 4 (PAD4), recombinant human, wild type (from UniProt Q9UM07) Y435A",,,
15.7,4.2 × 10^-4,2.6,659,13.5,,"peptidylarginine deiminase 4 (PAD4), recombinant human, wild type (from UniProt Q9UM07) R8E",,,
13.5,3.9 × 10^-4,3.1,,7.5,,"peptidylarginine deiminase 4 (PAD4), recombinant human, wild type (from UniProt Q9UM07) K126S; K128S; R131S; K134S; R137S",,,
11.8,6.7 × 10^-4,5.6,,6.1,,"peptidylarginine deiminase 4 (PAD4), recombinant human, wild type (from UniProt Q9UM07) K59S; K60S; K61S; K81S; K91S",,,
